This note sets out measurements from IntAct's records for PubMed 19293378.

B1: Apoptosis regulator BHRF1 (Epstein-Barr virus (strain B95-8) (HHV-4)), P03182 (parent)
chain: MAYSTREILLALCIRDSRVHGNGTLHPVLELAARETPLRLSPEDTVVLRYHVLLEEIIERNSETFTETWNRFITHTEHVDLDFNSVFLEIFHRGDPSLGRALAWMAWCMHACRTLCCNQSTPYYVVDLSVRGMLEASEGLDGWIHQQGGWSTLIEDNIPGSRRFSWTLFLAGLTLSLLVICSYLFISRGRH
B2: Apoptosis regulator BHRF1 (Epstein-Barr virus (strain B95-8) (HHV-4)), P03182 (parent)
chain: B1 chain
partner: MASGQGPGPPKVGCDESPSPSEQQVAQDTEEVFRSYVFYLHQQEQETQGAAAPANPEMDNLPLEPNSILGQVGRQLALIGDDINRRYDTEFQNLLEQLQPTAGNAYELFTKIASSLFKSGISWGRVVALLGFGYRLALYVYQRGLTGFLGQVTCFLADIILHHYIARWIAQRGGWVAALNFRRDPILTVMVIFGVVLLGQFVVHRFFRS

The variants in the first assay derive from B1. Particulars: with Bcl2l11, O54918.
Sequence of Bcl2l11, O54918 (O54918 whole entry): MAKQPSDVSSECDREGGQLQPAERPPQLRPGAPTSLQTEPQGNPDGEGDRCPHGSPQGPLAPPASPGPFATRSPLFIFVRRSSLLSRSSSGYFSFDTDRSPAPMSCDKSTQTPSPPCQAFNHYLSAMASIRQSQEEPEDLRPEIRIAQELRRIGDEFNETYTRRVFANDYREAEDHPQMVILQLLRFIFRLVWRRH
For G99A, the “effect of a mutation on the interaction” value is “decreasing interaction strength”.

The variants in a further assay derive from B2. Particulars: with bak_mouse Bak1, O08734.
Turning to G99A, the “effect of a mutation on the interaction” value was “decreasing interaction strength”. On the same count and under the same terms, as for L98A, the entry is “decreasing interaction strength”; as for R100A, “decreasing interaction strength”; as for L98A;G99A;R100A, “disrupting interaction strength”.
